Data taken from the supplement of paper PMC12667976.
± gives the standard error.

B1: library; numbered along this chain (parent)
chain: MATDAALRRLLRLHRTEIAVAVDSAFPLLHALADHDVVPEDKFQETLHLKEKEGCPQAFHALLSWLLTQDSTAILDFWRVLFKDYNLERYGRLQPILDSFPKDVDLSQPRKGRKPPAVPKALVPPPRLPTKRKASEEARAAAPAALTPRGTASPGSQLKAKPPKKPESSAEQQRLPLGNGIQTMSASVQRAVAMSSGDVPGARGAVEGILIQQVFESGGSKKCIQVGGEFYTPSKFEDSGSGKNKARSSSGPKPLVRAKGAQGAAPGGGEARLGQQGSVPAPLALPSDPQLHQKNEDECAVCRDGGELICCDGCPRAFHLACLSPPLREIPSGTWRCSSCLQATVQEVQPRAEEPRPQEPPVETPLPPGLRSAGEEVRGPPGEPLAGMDTTLVYKHLPAPPSAAPLPGLDSSALHPLLCVGPEGQQNLAPGARCGVCGDGTDVLRCTHCAAAFHWRCHFPAGTSRPGTGLRCRSCSGDVTPAPVEGVLAPSPARLAPGPAKDDTASHEPALHRDDLESLLSEHTFDGILQWAIQSMARPAAPFPS

Variants of: B1
Experiment: AIRE transcriptional activation functional score (insulin promoter-GFP; nonsense median 0, synonymous median 1) (normalised score); higher = higher AIRE activity (more reporter activation)
Conditions: with insulin promoter-GFP reporter in HEK293
Method: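 Deep mutational scan of full-length human AIRE (codon-optimized cDNA, DT-POPCode NNN libraries over three regions) integrated at a Bxb1 landing pad in HEK293 cells carrying an insulin core promoter-GFP reporter at a Flp-In site. Cells were sorted for the top 10% GFP about 14 days after transfection. Variant frequency log-ratios (select vs non-select, TileSeq) were rescaled so that the nonsense median is 0 and the synonymous median is 1, then averaged over biological replicates.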

Variant | AIRE transcriptional activation functional score
H448T | 1.54 ± 0.085
H448N | 1.18 ± 0.2
P430E | 1.01 ± 0.11
P430T | 0.77 ± 0.24
P430N | 1.14 ± 0.18
G382N | 0.95 ± 0.35
E376A | 0.899 ± 0.079
A5Q | 0.782 ± 0.05
D238R | 0.333 ± 0.33
A191G | 0.958 ± 0.38
A191P | 0.647 ± 0.17
V345M | 1.28 ± 0.08
L32R | -0.205 ± 0.63
R92F | 0.28 ± 0.39
A61P | -0.68 ± 0.6
F543E | 0.561 ± 0.2
G306E | 1.14 ± 0.19
G306S | 0.862 ± 0.09
M388R | 0.983 ± 0.27
A19M | 1.9 ± 0.1
A19L | 0.0523 ± 0.27
P401Q | 1.18 ± 0.098
P401T | 0.717 ± 0.33
G274N | 1 ± 0.34

Variant | AIRE transcriptional activation functional score
D410G | 0.967 ± 0.16
D410K | 0.35 ± 0.38
D410M | 0.501 ± 0.1
F43V | 0.36 ± 0.83
R494S | 0.361 ± 0.17
Q262R | 0.909 ± 0.23
V192Y | 1.19 ± 0.039
L392R | 1.06 ± 0.21
C55I | 1.19 ± 0.74
R371Y | 1.39 ± 0.15
P109W | 0.0143 ± 0.096
A399G | 0.994 ± 0.14
A399M | 1.22 ± 0.046
A399Q | 0.327 ± 0.12
L511P | 0.736 ± 0.18
L511G | 0.805 ± 0.27
Y85G | -1.95 ± 0.17
C419L | 1.33 ± 0.39
D439Q | 0.923 ± 0.33
D439N | 1.07 ± 0.088
L49G | -0.0766 ± 0.54
A6V | 0.772 ± 0.51
S234W | 0.775 ± 0.023
S234P | 1.19 ± 0.16

Variant | AIRE transcriptional activation functional score
S234R | 1.21 ± 0.29
G421V | 0.933 ± 0.21
P115S | 1.58 ± 0.71
V118K | 0.143 ± 0.23
L308E | 1.02 ± 0.049
K102A | -0.872 ± 0.13
P252V | 1.35 ± 0.25
P116D | 0.468 ± 0.33
K120S | 1.21 ± 0.44
A496C | 1.01 ± 0.14
I211K | 0.0368 ± 0.087
S372D | 1.06 ± 0.14
P499T | 1.32 ± 0.28
L175P | 0.463 ± 0.91
A117P | 0.913 ± 0.48
A117C | 1.1 ± 0.64
P384I | 0.998 ± 0.15
K253R | 0.777 ± 0.38
G379E | 1 ± 0.054
A144W | 1.99 ± 0.039
A121Y | 1.59 ± 0.18
Q157I | 0.859 ± 0.43
L418A | 1.06 ± 0.15
P331W | 1.26 ± 0.029

Variant | AIRE transcriptional activation functional score
R445F | 0.192 ± 0.16
Q212R | 1.09 ± 0.32
E298D | 0.987 ± 0.4
P460L | 0.827 ± 0.23
P460V | 0.608 ± 0.31
L291T | 0.708 ± 0.16
P416K | 0.665 ± 0.13
P416Q | 1.49 ± 0.21
G112C | 0.924 ± 0.17
G112M | 0.488 ± 0.49
F26S | 0.0967 ± 0.64
Q172N | 0.691 ± 0.23
P176L | 1.6 ± 0.3
P176D | -0.465 ± 0.61
L516T | 0.362 ± 0.28
L516S | 0.564 ± 0.12
E88G | -0.0199 ± 0.27
P325A | 1.15 ± 0.11
G527M | 0.725 ± 0.034
D70H | -0.0845 ± 0.37
G440E | 0.195 ± 0.054
S241T | 1.11 ± 0.25
L470C | 0.85 ± 0.11
E137F | 1.36 ± 0.29

Variant | AIRE transcriptional activation functional score
V393Q | -0.242 ± 0.092
R456F | -0.0642 ± 0.14
S168N | 0.613 ± 0.67
D515M | -0.0216 ± 0.062
Q173P | 1.05 ± 0.46
K161G | 1.56 ± 0.57
C299D | 0.505 ± 0.11
R303L | 1.12 ± 0.2
R303D | 0.544 ± 0.19
A202T | 0.777 ± 0.24
R473N | 0.99 ± 0.077
R473E | 1.16 ± 0.2
Y231W | 1.05 ± 0.014
L62K | -0.404 ± 0.34
L62F | -0.766 ± 0.19
L97C | 0.164 ± 0.14
L327P | 0.673 ± 0.37
S521C | 0.241 ± 0.2
S521R | 0.245 ± 0.29
S521M | 0.76 ± 0.13
I224P | 0.419 ± 0.17
I224H | 0.512 ± 0.22
P544Y | 1.65 ± 0.029
E363V | 1.14 ± 0.11

Variant | AIRE transcriptional activation functional score
E207G | 1.11 ± 0.21
E216C | 0.558 ± 0.042
E216A | 0.655 ± 0.34
P148C | 1.31 ± 0.56
A73L | 0.61 ± 0.97
A73P | 0.676 ± 0.44
S338Q | 0.916 ± 0.089
L122F | 1.32 ± 0.15
K133N | -0.0115 ± 0.23
P422A | 0.724 ± 0.49
T391P | 0.882 ± 0.38
V487M | 0.568 ± 0.19
E229L | 0.0432 ± 0.24
A265G | 0.964 ± 0.1
G431Y | 0.576 ± 0.32
E522V | 0.236 ± 0.14
E522T | -0.656 ± 0.48
E522K | 0.503 ± 0.2
S64C | -0.513 ± 0.2
S64N | 0.278 ± 0.14
S412K | 0.899 ± 0.084
T364G | 0.32 ± 0.29
L11T | -0.0406 ± 0.65
E167F | 1.89 ± 0.12

Variant | AIRE transcriptional activation functional score
E167P | 0.414 ± 0.29
K221F | -0.0481 ± 0.13
D103N | 0.59 ± 0.45
A541H | 0.976 ± 0.41
A541R | 0.198 ± 0.16
V436P | 0.39 ± 0.15
L283E | 0.987 ± 0.2
L283P | 0.953 ± 0.21
S156I | 1.37 ± 0.37
K42G | -0.403 ± 0.21
A532F | -0.19 ± 0.1
A532G | 0.0621 ± 0.18
C449E | 0.0473 ± 0.093
P367G | 0.153 ± 0.37
P367Y | 1.39 ± 0.13
R471D | 0.476 ± 0.075
P39L | -0.0747 ± 0.48
T130S | 1.36 ± 0.41
L397Y | 0.779 ± 0.18
L397R | 0.938 ± 0.22
R89W | 0.927 ± 0.079
K52T | 1.21 ± 0.53
G387Y | 1.72 ± 0.1
